# In article PMC6112833, “Combinatorial engineering of N-TIMP2 variants that selectively inhibit MMP9 and MMP14 function in the cell” (Oncotarget, 2018):
# Changes are numbered by the printed parent chain.
# T1: MMP1 catalytic domain (MMP1CAT) (UniProt P03956 100-269)
# T1 construct: catalytic domain of MMP1 (collagenase); source: purified as previously described [66, 91]
# T1 sequence (looked up): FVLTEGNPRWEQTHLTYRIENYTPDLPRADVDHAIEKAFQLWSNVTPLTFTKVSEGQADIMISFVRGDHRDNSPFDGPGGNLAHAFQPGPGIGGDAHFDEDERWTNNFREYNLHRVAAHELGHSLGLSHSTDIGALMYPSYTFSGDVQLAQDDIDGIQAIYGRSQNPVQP
# T2: MMP9 catalytic domain lacking the fibronectin-like domain (MMP9CAT, residues 107-215 and 391-443) (human, UniProt P14780 107-215; P14780 391-443, conjugated to DyLight-650 for the yeast display sorting and flow cytometry)
# T2 construct: human MMP9 catalytic domain, first stretch, residues 107-215 (before the fibronectin-like domain, which is left out); human MMP9 catalytic domain, second stretch, residues 391-443 (after the fibronectin-like domain); In the functional rows the full-length MMP9 secreted by MCF-7-MMP9 cells is meant; source: gift from Irit Sagi (Weizmann Institute of Science), purified
# T2 chain (looked up): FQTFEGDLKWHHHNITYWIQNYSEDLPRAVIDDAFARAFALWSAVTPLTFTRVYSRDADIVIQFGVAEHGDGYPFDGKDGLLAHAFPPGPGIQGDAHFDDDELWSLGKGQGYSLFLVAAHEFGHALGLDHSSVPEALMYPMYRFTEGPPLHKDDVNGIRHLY
# B1: N-TIMP2WT, wild type N-terminal domain of the tissue inhibitor of metalloproteinase-2, soluble form (domain or fragment, UniProt P16035 27-153, looked up)
# chain: CSCSPVHPQQAFCNADVVIRAKAVSEKEVDSGNDIYGNPIKRIQYEIKQIKMFKGPEKDIEFIYTAPSSAVCGVSLDVGGKKEYLIAGKAEGDGKMHITLCDFIVPWDTLSTTQKKSLNHRYQMGCE
# notes: limits worked out from the printed primers (forward primer encodes CSCSP, reverse primer ends at YQMGCE); also called wild-type N-TIMP-2; source: P. pastoris X33 (pPICZalphaA), secreted, purified (Ni-NTA, Superdex 75 SEC)
# B2: N-TIMP2_(9_13), soluble form (designed binder)
# chain: B1 chain with S4P, I35P, N38W, S68N, H97K, T99K
# notes: limits worked out from the printed primers (forward primer encodes CSCP, reverse primer ends at YQMGCE); source: P. pastoris X33 (pPICZalphaA), secreted, purified (Ni-NTA, Superdex 75 SEC)
# B3: N-TIMP2_(14_17), soluble form (designed binder)
# chain: B1 chain with S4D, I35L, N38S, S68D, V71S, H97S, T99F
# notes: limits worked out from the printed primers (forward primer encodes CSCD, reverse primer ends at YQMGCE); source: P. pastoris X33 (pPICZalphaA), secreted, purified (Ni-NTA, Superdex 75 SEC)
# B4: N-TIMP2_(9_1), soluble form (designed binder)
# chain: B1 chain with S4P, I35P, N38W, S68N, V71I, H97M, T99K
# notes: as for B2
# B5: N-TIMP2_(14_18), soluble form (designed binder)
# chain: B1 chain with S4K, I35L, N38F, S68F, H97E
# notes: limits worked out from the printed primers (forward primer encodes CSCK, reverse primer ends at YQMGCE); also called N-TMP2_(14_18); source: P. pastoris X33 (pPICZalphaA), secreted, purified (Ni-NTA, Superdex 75 SEC)
# Tests used:
# [1] = molecular target: T3, MMP10 catalytic domain (MMP10CAT) (UniProt P09238 99-263); assay: enzyme inhibition assay (fluorogenic substrate, fit to Morrison's tight binding equation); 0.0075 nM MMP14CAT or MMP9CAT (MMP1CAT, MMP10CAT: concentration not stated) incubated with 0.4-25 nM or 1.5-500 nM inhibitor for 1 h at 37 C in TCNB buffer (50 mM Tris-HCl pH 7.5, 100 mM NaCl, 5 mM CaCl2, 0.05% Brij), then 15 uM Mca-Pro-Leu-Gly-Leu-Dpa-Ala-Arg-NH2; Ki from the apparent Ki; mean of three experiments; settings: both partners purified
# T3 construct: catalytic domain of MMP10 (stromelysin); source: purified as previously described [66, 91]
# [2] = molecular target: T1, MMP1 catalytic domain (MMP1CAT); assay: as above; settings: both partners purified
# [3] = molecular target: T2, MMP9 catalytic domain lacking the …; assay: as above; settings: both partners purified
# [4] = molecular target: T4, MMP14 catalytic domain (MMP14CAT, residues 112-292) (human, UniProt P50281 112-292, conjugated to DyLight-488 for the yeast display sorting and flow cytometry); assay: as above; settings: both partners purified
# T4 construct: human MMP14 catalytic domain, residues 112-292; In the functional rows the MMP14 of the cells (endogenous in U87MG, or pCMV MMP14 in MCF-7) is meant; source: E. coli BL-21 (DE3), pET3a, purified as previously described
# [5] = molecular target: T2, MMP9 catalytic domain lacking the …; assay: cell-based or functional assay
# [6] = molecular target: T4, MMP14 catalytic domain (MMP14CAT, …); assay: cell-based or functional assay
# T3 sequence (P09238 99-263): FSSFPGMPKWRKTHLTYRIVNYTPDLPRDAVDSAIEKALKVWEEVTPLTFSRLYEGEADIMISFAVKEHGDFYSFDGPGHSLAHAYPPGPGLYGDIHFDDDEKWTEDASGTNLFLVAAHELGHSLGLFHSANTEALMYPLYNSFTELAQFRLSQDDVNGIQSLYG
Binder,Ki [1] [nM],Ki [2] [nM],Ki [3] [nM],Ki [4] [nM],"inhibition of the gelatin-degrading activity of MMP9 from MCF-7-MMP9 supernatant (gelatin zymography, gel incubated with 100 nM inhibitor) [5] [%]","inhibition of MMP2 activation by MMP14 in U87MG cells (gelatin zymography of media, 100 nM inhibitor, 48 h) [6] [%]","inhibition of trans-well migration of MCF-7-MMP14 cells (100 nM inhibitor, 24 h) [6] [%]"
B1,3.5 ± 0.8,0.7 ± 0.1,0.5 ± 0.04,5 ± 1,~86,45,30
B2,40 ± 14,18 ± 8,1.2 ± 0.007,832 ± 44,~75,,
B3,3.2 ± 0.4,0.92 ± 0.15,3.58 ± 0.5,0.03 ± 0.003,,45,38
B4,,,0.78 ± 0.02,240 ± 31,~82,,
B5,,,1.25 ± 0.2,0.024 ± 0.005,,50,~50
